Data taken from US20260242735A1 (UNIVERSIT T BASEL, published 2026).

B1: Refmab #2 (antibody, human IgG1, V domains shown)
VH: QVQLVQSGAEVKKPGSSVKVSCKASGGTFSDYAISWVRQAPGQGLEWMGRIIPILGVADYAQKFQGRVTITADKSTRTAYMELSSLRSEDTAVYYCARNWADAFDIWGQGTMVTVSS
VL: DIQLTQSPSSLSASVGDRVTITCRASQGISSVLAWYQQKPGKAPKLLIYDASSLESGVPSRFSGSGSGTDFTLTISSLQPEDFATYYCQQFDSSITFGQGTKLEIK
notes: Tested in IgG format; human IgG1 Fc silent (PG-LALA)
B2: Refmab #1 (antibody, human IgG1, V domains shown)
VH: EVQLVQSGAEVKKPGSSVKVSCKASGYTITDSNIHWVRQAPGQSLEWIGYIYPYNGGTDYNQKFKNRATLTVDNPTNTAYMELSSLRSEDTAFYYCVNGNPWLAYWGQGTLVTVSS
VL: DIQLTQSPSTLSASVGDRVTITCRASESLDNYGIRFLTWFQQKPGKAPKLLMYAASNQGSGVPSRFSGSGSGTEFTLTISSLQPDDFATYYCQQTKEVPWSFGQGTKVEVK
notes: Tested in IgG format; human IgG1 (Absolute Antibody hP67.6, Cat. No. Ab00283-10.0); also called hP67.6
B3: Refmab #4 (antibody, human IgG1, V domains shown)
VH: QVQLVQSGAEVKKPGESVKVSCKASGYTFTNYGMNWVKQAPGQGLEWMGWINTYTGEPTYADKFQGRVTMTTDTSTSTAYMEIRNLGGDDTAVYYCARWSWSDGYYVYFDYWGQGTSVTVSS
VL: DIVMTQSPDSLTVSLGERTTINCKSSQSVLDSSTNKNSLAWYQQKPGQPPKLLLSWASTRESGIPDRFSGSGSGTDFTLTIDSPQPEDSATYYCQQSAHFPITFGQGTRLEIK
notes: as for B1

How the values were obtained:
Test in all cases: flow cytometry, IgG on cells expressing the mutant
human CD33 variant D51Y = human CD33 variant D51Y (human, UniProt P20138 18-364)
human CD33 variant D51Y, sequence (P20138 18-364 D51Y limits assumed): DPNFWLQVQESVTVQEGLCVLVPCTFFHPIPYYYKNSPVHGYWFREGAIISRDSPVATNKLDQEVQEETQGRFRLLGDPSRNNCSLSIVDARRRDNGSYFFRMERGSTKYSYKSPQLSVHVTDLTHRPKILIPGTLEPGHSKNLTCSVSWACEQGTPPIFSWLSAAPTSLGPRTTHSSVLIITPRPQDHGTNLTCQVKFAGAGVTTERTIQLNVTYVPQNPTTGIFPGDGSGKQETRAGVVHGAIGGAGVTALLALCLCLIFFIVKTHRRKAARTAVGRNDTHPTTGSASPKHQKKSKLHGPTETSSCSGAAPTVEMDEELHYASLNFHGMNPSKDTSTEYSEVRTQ

human CD33 variant I47E = human CD33 variant I47E (human, UniProt P20138 18-364)
human CD33 variant Y127H = human CD33 variant Y127H (human, UniProt P20138 18-364)
human CD33 variant Y127H, sequence (P20138 18-364 Y127H limits assumed): as the sequence (P20138 18-364 D51Y limits assumed) above, with Y34D, Y110H counted along it

human CD33 variant Y50D = human CD33 variant Y50D (human, UniProt P20138 18-364)
human CD33 variant I47R = human CD33 variant I47R (human, UniProt P20138 18-364)
human CD33 variant P48L = human CD33 variant P48L (human, UniProt P20138 18-364)
human CD33 variant P48L, sequence (P20138 18-364 P48L limits assumed): as the sequence (P20138 18-364 D51Y limits assumed) above, with P31L, Y34D counted along it

human CD33 variant M120V = human CD33 variant M120V (human, UniProt P20138 18-364)
human CD33 variant M120V, sequence (P20138 18-364 M120V limits assumed): as the sequence (P20138 18-364 D51Y limits assumed) above, with Y34D, M103V counted along it

human CD33 variant Y49V = human CD33 variant Y49V (human, UniProt P20138 18-364)
human CD33 variant Y49S = human CD33 variant Y49S (human, UniProt P20138 18-364)
human CD33 variant Y50P = human CD33 variant Y50P (human, UniProt P20138 18-364)
human CD33 variant I47L = human CD33 variant I47L (human, UniProt P20138 18-364)
human CD33 variant P48H = human CD33 variant P48H (human, UniProt P20138 18-364)
human CD33 variant P48H, sequence (P20138 18-364 P48H limits assumed): as the sequence (P20138 18-364 D51Y limits assumed) above, with P31H, Y34D counted along it

human CD33 variant P48W = human CD33 variant P48W (human, UniProt P20138 18-364)
human CD33 variant Y50R = human CD33 variant Y50R (human, UniProt P20138 18-364)
human CD33 variant I47N = human CD33 variant I47N (human, UniProt P20138 18-364)
human CD33 variant I47N, sequence (P20138 18-364 I47N limits assumed): as the sequence (P20138 18-364 D51Y limits assumed) above, with I30N, Y34D counted along it

human CD33 variant M120L = human CD33 variant M120L (human, UniProt P20138 18-364)
human CD33 variant P48T = human CD33 variant P48T (human, UniProt P20138 18-364)
human CD33 variant Y50V = human CD33 variant Y50V (human, UniProt P20138 18-364)
human CD33 variant K52S = human CD33 variant K52S (human, UniProt P20138 18-364)
human CD33 variant Y49P = human CD33 variant Y49P (human, UniProt P20138 18-364)
human CD33 variant K52H = human CD33 variant K52H (human, UniProt P20138 18-364)
human CD33 variant K52H, sequence (P20138 18-364 K52H limits assumed): as the sequence (P20138 18-364 D51Y limits assumed) above, with Y34D, K35H counted along it

human CD33 variant Y49D = human CD33 variant Y49D (human, UniProt P20138 18-364)
human CD33 variant Y49T = human CD33 variant Y49T (human, UniProt P20138 18-364)
human CD33 variant Y49T, sequence (P20138 18-364 Y49T limits assumed): as the sequence (P20138 18-364 D51Y limits assumed) above, with Y32T, Y34D counted along it

human CD33 variant Y49H = human CD33 variant Y49H (human, UniProt P20138 18-364)
human CD33 variant Y49H, sequence (P20138 18-364 Y49H limits assumed): as the sequence (P20138 18-364 D51Y limits assumed) above, with Y32H, Y34D counted along it

human CD33 variant Y127E = human CD33 variant Y127E (human, UniProt P20138 18-364)
human CD33 variant Y127E, sequence (P20138 18-364 Y127E limits assumed): as the sequence (P20138 18-364 D51Y limits assumed) above, with Y34D, Y110E counted along it

human CD33 variant Y50I = human CD33 variant Y50I (human, UniProt P20138 18-364)
human CD33 variant Y50H = human CD33 variant Y50H (human, UniProt P20138 18-364)
human CD33 variant I47W = human CD33 variant I47W (human, UniProt P20138 18-364)
human CD33 variant I47W, sequence (P20138 18-364 I47W limits assumed): as the sequence (P20138 18-364 D51Y limits assumed) above, with I30W, Y34D counted along it

human CD33 variant Y49C = human CD33 variant Y49C (human, UniProt P20138 18-364)
human CD33 variant Y49C, sequence (P20138 18-364 Y49C limits assumed): as the sequence (P20138 18-364 D51Y limits assumed) above, with Y32C, Y34D counted along it

human CD33 variant R122S = human CD33 variant R122S (human, UniProt P20138 18-364)
human CD33 variant Y49Q = human CD33 variant Y49Q (human, UniProt P20138 18-364)
human CD33 variant P48G = human CD33 variant P48G (human, UniProt P20138 18-364)
human CD33 variant K52I = human CD33 variant K52I (human, UniProt P20138 18-364)
human CD33 variant K52I, sequence (P20138 18-364 K52I limits assumed): as the sequence (P20138 18-364 D51Y limits assumed) above, with Y34D, K35I counted along it

human CD33 variant K52Y = human CD33 variant K52Y (human, UniProt P20138 18-364)
human CD33 variant P48D = human CD33 variant P48D (human, UniProt P20138 18-364)
human CD33 variant P48K = human CD33 variant P48K (human, UniProt P20138 18-364)
human CD33 variant P48K, sequence (P20138 18-364 P48K limits assumed): as the sequence (P20138 18-364 D51Y limits assumed) above, with P31K, Y34D counted along it

Binder	Mean % WT Binding (human CD33 variant D51Y)	Mean % WT Binding (human CD33 variant I47E)	Mean % WT Binding (human CD33 variant Y127H)	Mean % WT Binding (human CD33 variant Y50D)	Mean % WT Binding (human CD33 variant I47R)	Mean % WT Binding (human CD33 variant P48L)	Mean % WT Binding (human CD33 variant M120V)	Mean % WT Binding (human CD33 variant Y49V)	Mean % WT Binding (human CD33 variant Y50P)	Mean % WT Binding (human CD33 variant I47L)	Mean % WT Binding (human CD33 variant P48H)	Mean % WT Binding (human CD33 variant P48W)	Mean % WT Binding (human CD33 variant Y50R)	Mean % WT Binding (human CD33 variant I47N)	Mean % WT Binding (human CD33 variant M120L)	Mean % WT Binding (human CD33 variant P48T)	Mean % WT Binding (human CD33 variant Y50V)	Mean % WT Binding (human CD33 variant K52S)	Mean % WT Binding (human CD33 variant Y49P)	Mean % WT Binding (human CD33 variant K52H)	also measured
B1	69.8 % of WT	0.5 % of WT	114 % of WT	112 % of WT	1.6 % of WT	90.4 % of WT	95.5 % of WT	90.4 % of WT	95.8 % of WT	2.8 % of WT	81.9 % of WT	68.8 % of WT	109 % of WT	0.4 % of WT	124 % of WT	71.3 % of WT	126 % of WT	113 % of WT	6.9 % of WT	84.7 % of WT	Mean % WT Binding (human CD33 variant Y49S): 87.2 % of WT; Mean % WT Binding (human CD33 variant Y49D): 1.4 % of WT; Mean % WT Binding (human CD33 variant Y49T): 76.3 % of WT; Mean % WT Binding (human CD33 variant Y49H): 17.2 % of WT; Mean % WT Binding (human CD33 variant Y127E): 105 % of WT; Mean % WT Binding (human CD33 variant Y50I): 126 % of WT; Mean % WT Binding (human CD33 variant Y50H): 119 % of WT; Mean % WT Binding (human CD33 variant I47W): 0.6 % of WT; Mean % WT Binding (human CD33 variant Y49C): 3.2 % of WT; Mean % WT Binding (human CD33 variant R122S): 3.4 % of WT; Mean % WT Binding (human CD33 variant Y49Q): 17.4 % of WT; Mean % WT Binding (human CD33 variant P48G): 80.8 % of WT; Mean % WT Binding (human CD33 variant K52I): 86.8 % of WT; Mean % WT Binding (human CD33 variant K52Y): 21 % of WT; Mean % WT Binding (human CD33 variant P48D): 10.4 % of WT; Mean % WT Binding (human CD33 variant P48K): 106 % of WT
B2	94.4 % of WT	101 % of WT	97.1 % of WT	115 % of WT	96.1 % of WT	102 % of WT	98.7 % of WT	101 % of WT	98.1 % of WT	112 % of WT	97.4 % of WT	95.6 % of WT	94.1 % of WT	87.8 % of WT	98.4 % of WT	106 % of WT	94.9 % of WT	84.3 % of WT	92.5 % of WT	94.2 % of WT	Mean % WT Binding (human CD33 variant Y49S): 107 % of WT; Mean % WT Binding (human CD33 variant Y49D): 93.4 % of WT; Mean % WT Binding (human CD33 variant Y49T): 108 % of WT; Mean % WT Binding (human CD33 variant Y49H): 89.1 % of WT; Mean % WT Binding (human CD33 variant Y127E): 79.2 % of WT; Mean % WT Binding (human CD33 variant Y50I): 99.2 % of WT; Mean % WT Binding (human CD33 variant Y50H): 103 % of WT; Mean % WT Binding (human CD33 variant I47W): 111 % of WT; Mean % WT Binding (human CD33 variant Y49C): 67.2 % of WT; Mean % WT Binding (human CD33 variant R122S): 111 % of WT; Mean % WT Binding (human CD33 variant Y49Q): 105 % of WT; Mean % WT Binding (human CD33 variant P48G): 95 % of WT; Mean % WT Binding (human CD33 variant K52I): 89.2 % of WT; Mean % WT Binding (human CD33 variant K52Y): 45 % of WT; Mean % WT Binding (human CD33 variant P48D): 109 % of WT; Mean % WT Binding (human CD33 variant P48K): 99.4 % of WT
B3	61.9 % of WT	54.8 % of WT	105 % of WT	0.9 % of WT	66.2 % of WT	1 % of WT	100 % of WT	46.9 % of WT	85.6 % of WT	88.5 % of WT	2.9 % of WT	1.3 % of WT	0.3 % of WT	74.8 % of WT	110 % of WT	11.7 % of WT	1.7 % of WT	85 % of WT	1.2 % of WT	75.1 % of WT	Mean % WT Binding (human CD33 variant Y49D): 2.5 % of WT; Mean % WT Binding (human CD33 variant Y49T): 2.8 % of WT; Mean % WT Binding (human CD33 variant Y49H): 95.1 % of WT; Mean % WT Binding (human CD33 variant Y127E): 104 % of WT; Mean % WT Binding (human CD33 variant Y50I): 4.5 % of WT; Mean % WT Binding (human CD33 variant Y50H): 2 % of WT; Mean % WT Binding (human CD33 variant I47W): 86.8 % of WT; Mean % WT Binding (human CD33 variant Y49C): 0.5 % of WT; Mean % WT Binding (human CD33 variant R122S): 90.2 % of WT; Mean % WT Binding (human CD33 variant Y49Q): 91.9 % of WT; Mean % WT Binding (human CD33 variant P48G): 0.4 % of WT; Mean % WT Binding (human CD33 variant K52I): 61.9 % of WT; Mean % WT Binding (human CD33 variant K52Y): 20.7 % of WT; Mean % WT Binding (human CD33 variant P48D): 2 % of WT; Mean % WT Binding (human CD33 variant P48K): 0 % of WT
